Measured values as given in article PMC4381072, “Short antisense-locked nucleic acids (all-LNAs) correct alternative splicing abnormalities in myotonic dystrophy”.

T1: MBNL1 (isoform encoded by exons 1-4) (UniProt Q9NR56 1-269)
T1 sequence: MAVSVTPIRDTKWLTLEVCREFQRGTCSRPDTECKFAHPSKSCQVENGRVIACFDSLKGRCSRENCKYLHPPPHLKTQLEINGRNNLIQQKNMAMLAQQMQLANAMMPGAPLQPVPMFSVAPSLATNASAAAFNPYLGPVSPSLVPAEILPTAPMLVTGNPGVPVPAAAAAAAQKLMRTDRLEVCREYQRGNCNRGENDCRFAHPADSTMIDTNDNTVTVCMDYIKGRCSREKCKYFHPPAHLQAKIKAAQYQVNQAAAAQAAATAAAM


Biological target: T1, MBNL1 (isoform encoded by exons 1-4)
Assay: filter binding; 0-500 nM MBNL1; 0.5 nM oligomer; FBA: FBB (50 mM Tris-HCl pH 8.0, 1 mM MgCl2, 0.05% Tween 20) with 250 mM NaCl and 15 mM KCl, 37 C, 30 min, 30 ul
Details: protein: recombinant; tags: N-terminal GST; C-terminal His6; label: radiolabeled; single strand

| Binder | binding result |
| --- | --- |
| CAGCAGCA (XNA, all LNA, phosphodiester) [PO-LNA-CAG-8] | no binding |
| CAGCAGCAGC (XNA, all LNA, phosphodiester) [PO-LNA-CAG-10] | no binding |
